Data as given in patent US20160257710A1, “SELECTIVE INHIBITORS OF PROTEINASE 3” (INSERM (INSTITUT NATIONAL DE LA SANTÉ ET LA RECHERCHE …, priority 2013, published 2016).
Numbering of substitutions follows the chain as printed. Where no end group is shown, it is not given here. [ ]: non-standard residue; d: D form. AlaP = not defined here

Columns and labels:
[1] = target: T1, PR3 (Homo sapiens, UniProt P24158); experiment: Inhibition of PR3 in a lysate of purified human neutrophils; format: biochemical; settings: conditions as with purified proteases
T1 construct: in a lysate of purified human neutrophils; endogenous in cells; host or cells: purified human neutrophils (lysate)
T1 sequence (P24158 28-248): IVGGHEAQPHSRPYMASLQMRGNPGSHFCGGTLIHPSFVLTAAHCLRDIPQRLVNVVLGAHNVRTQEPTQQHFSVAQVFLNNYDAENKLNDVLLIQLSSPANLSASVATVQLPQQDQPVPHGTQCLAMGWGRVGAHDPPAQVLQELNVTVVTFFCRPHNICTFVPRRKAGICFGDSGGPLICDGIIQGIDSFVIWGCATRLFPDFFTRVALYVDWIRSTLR
Description: (§1) We first studied the stability and the selectivity of compound 1, 2 and their biotinylated derivatives in a lysate of purified human neutrophils. […] Further, PR3 was selectively inactivated in the neutrophil lysate as shown by western blotting using biotinylated inhibitors.

[2] = target: T2, HNE (Homo sapiens, UniProt P08246); experiment: Residual activity of purified protease with FRET substrate in presence of increasing amounts of compound; format: biochemical
T2 sequence (P08246 30-267): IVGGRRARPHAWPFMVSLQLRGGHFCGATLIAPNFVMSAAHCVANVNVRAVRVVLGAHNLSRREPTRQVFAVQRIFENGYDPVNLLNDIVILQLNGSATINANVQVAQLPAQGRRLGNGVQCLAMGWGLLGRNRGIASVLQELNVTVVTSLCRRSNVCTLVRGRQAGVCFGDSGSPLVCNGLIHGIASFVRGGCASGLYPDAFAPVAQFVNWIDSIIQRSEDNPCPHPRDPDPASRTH
Description: (§2) Phosphonate inhibitors and their biotinylated and fluorescent derivatives were synthesized, purified and controlled by mass spectrometry as reported. Their purity was checked by HPLC (data not shown). Purified Ac-Asp-Tyr-Asp-Ala^P(O—C6H4-4-Cl)2 (compound 1) and Ac-Pro-Tyr-Asp-Ala^P(O—C6H4-4-Cl)2 (compound 2) were first assayed for their inhibitory properties by measuring the residual activity of the human neutrophil serine proteases PR3, HNE and CatG in the presence of increasing amounts of each compound. We used for this purpose the FRET substrates that we developed previously for each protease (18). An almost complete inhibition of PR3 (1 nM final) was obtained after a 30 min incubation time with 20 μM of compound 1 (FIG. 1) and 0.3 μM of compound 2 (FIG. 2). Recombinant PR3K99L, […], HNE and CatG were used in the same experimental conditions. […] This emphasizes the importance of the S2 and S4 subsites to discriminate between PR3 and HNE specificities. Significant inhibition of HNE was obtained using about 100 times more Ac-Pro-Tyr-Asp-Ala^P(O—C6H4-4-Cl)2 than required to inhibit PR3. […] We confirmed this observation kinetically by measuring the second order rate constants kobs/l by competition experiments between the PR3 substrate and each inhibitor (17). As expected the second order rate constant kobs/l for compound 2 was about 100 times greater than that for compound 1 (see Table 1).

[3] = target: T3, CatG (Homo sapiens, UniProt P08311); experiment: as above; format: biochemical; settings: CatG 1 nM, same experimental conditions as PR3
T3 sequence (P08311 21-244): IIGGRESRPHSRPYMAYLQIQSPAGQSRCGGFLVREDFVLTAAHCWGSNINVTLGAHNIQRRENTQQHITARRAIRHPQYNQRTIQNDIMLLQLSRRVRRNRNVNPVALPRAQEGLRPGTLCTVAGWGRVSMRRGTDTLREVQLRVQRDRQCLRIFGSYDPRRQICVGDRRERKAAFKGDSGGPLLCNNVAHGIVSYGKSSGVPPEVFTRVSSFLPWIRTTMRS
Description: as §2

[4] = target: T1, PR3; experiment: as above; format: biochemical; settings: PR3 1 nM final, 30 min incubation
Description: as §2

[5] = target: T4, PR3K99L (Homo sapiens, UniProt P24158, K115L); experiment: Residual activity of recombinant PR3 mutant in presence of increasing amounts of compound; format: biochemical; settings: Lys99 replaced by Leu in S2 subsite
T4 construct: made in house; host or cells: Drosophila S2 cells
T4 sequence (P24158 28-248 K115L limits assumed): T1 sequence (P24158 28-248) with K88L
Experimental: (§3) Recombinant PR3K99L and […] were produced in Drosophila S2 cells using the calcium phosphate method, and stable cell lines were selected using puromycin. Proteins were purified by affinity chromatography on Chelating Sepharose and analyzed by SDS-PAGE. The total protein concentration was determined with a BCA Protein Assay
as §2

[6] = target: T5, PR3I217R (Homo sapiens, UniProt P24158, I221R); experiment: as above; format: biochemical
T5 construct: made in house; host or cells: Drosophila S2 cells
T5 sequence (P24158 28-248 I221R limits assumed): T1 sequence (P24158 28-248) with I194R
Experimental: as §3, §2

[7] = target: T3, CatG; experiment: Inhibition of protease activity in crude lung secretions of patients (IPF, cystic fibrosis); format: biochemical; settings: 30 min incubation, IPF and CF samples
[8] = target: T6, Elastase (Homo sapiens, UniProt P08246); experiment: Protease inhibition assay, second order rate constant kobs/[I] (method of Tian and Tsou); format: biochemical; settings: n.s where no significant inhibition
T6 sequence (P08246 30-267): T2 sequence (P08246 30-267)
Experimental: The inactivation of proteases by substrate analog inhibitors in the presence of the substrate by competition for the enzyme-binding site, was measured by the method of Tian and Tsou (17). In this system, product formation in the presence of an irreversible inhibitor approaches an asymptote, as described by
log([P∞]−[P])=log [P∞]−0.43A[Y]t
where [P∞] is the concentration of product formed at time approaching infinity, [P] is the concentration of product at time t, [Y] is the inhibitor concentration, and A is the apparent inhibition rate constant in the presence of the substrate. A is given by
where k+0 is the rate constant for association of the inhibitor with the enzyme, K^−1 is the inverted Michaelis constant, and [S] the substrate concentration. The apparent inhibition rate constant A is the slope of a plot of log([P∞]−[P]) against t, to give the second-order rate constant of inhibition k+0

[9] = target: T2, HNE; experiment: Inhibition of protease activity in crude lung secretions of patients (IPF, cystic fibrosis); format: biochemical; settings: 30 min incubation, IPF and CF samples
[10] = Stability of inhibitors in neutrophil lysate (preincubation before adding substrates); format: in vitro ADME, human; settings: one hour preincubation of neutrophil lysate-inhibitor mixture
Description: as §1

- PR3 activity in neutrophil lysate [1]: totally inactivated
- amount of inhibitor for significant inhibition of HNE relative to that required to inhibit PR3 [2]: about 100 times
- inhibition of HNE ([2]; HNE 1 nM, same experimental conditions as PR3): no significant inhibition
- inhibition of CatG [3]: no significant inhibition
- concentration giving almost complete inhibition of PR3 [4]: 0.3 µM
- sensitivity of PR3K99L to inhibition compared with wt PR3 [5]: far less sensitive to inhibition
- inhibition of the Ile217 to Arg217 PR3 mutant compared with PR3K99L [6]: more efficient toward this mutant
- CatG activity in crude lung secretions [7]: remained unchanged
- Elastase kobs/[I] [8]: n.s
- HNE activity in crude lung secretions [9]: remained unchanged
Substance: Ac-Pro-Tyr-Asp-Ala^P(O—C6H4-4-Cl)2 (Ac-PYD[AlaP]; not fully specified (C-terminus); printed as Ac-Pro-Tyr-Asp-Ala^P(O—C6H4-4-Cl)2; reading uncertain; also: C-terminal Ala as phosphonate analogue (Ala^P)) [Compound 2]
- inhibition potential after preincubation in neutrophil lysate [10]: No loss of the inhibition potential
